Assay results published in EP1881070A2.

How the values were obtained:
[1] = target: human zalpha11 receptor (human) (UniProt Q9HBE5); assay: cell-based or functional assay
[2] = target: human zalpha11 receptor (human) (UniProt Q9HBE5); assay: 125I-ligand competition on Raji cells, relative to no competitor
[3] = target: human zalpha11 receptor (human) (UniProt Q9HBE5); assay: 125I-ligand competition on BaF3/zalpha11 cells, relative to no competitor
[4] = target: human zalpha11 receptor (human) (UniProt Q9HBE5); assay: 125I-ligand competition on Raji cells, relative to non-specific competitor Interferon Gamma
[5] = target: human zalpha11 receptor (human) (UniProt Q9HBE5); assay: 125I-ligand competition on BaF3/zalpha11 cells, relative to non-specific competitor Interferon Gamma

Sequence of human zalpha11 receptor (human) (Q9HBE5 20-538 limits assumed): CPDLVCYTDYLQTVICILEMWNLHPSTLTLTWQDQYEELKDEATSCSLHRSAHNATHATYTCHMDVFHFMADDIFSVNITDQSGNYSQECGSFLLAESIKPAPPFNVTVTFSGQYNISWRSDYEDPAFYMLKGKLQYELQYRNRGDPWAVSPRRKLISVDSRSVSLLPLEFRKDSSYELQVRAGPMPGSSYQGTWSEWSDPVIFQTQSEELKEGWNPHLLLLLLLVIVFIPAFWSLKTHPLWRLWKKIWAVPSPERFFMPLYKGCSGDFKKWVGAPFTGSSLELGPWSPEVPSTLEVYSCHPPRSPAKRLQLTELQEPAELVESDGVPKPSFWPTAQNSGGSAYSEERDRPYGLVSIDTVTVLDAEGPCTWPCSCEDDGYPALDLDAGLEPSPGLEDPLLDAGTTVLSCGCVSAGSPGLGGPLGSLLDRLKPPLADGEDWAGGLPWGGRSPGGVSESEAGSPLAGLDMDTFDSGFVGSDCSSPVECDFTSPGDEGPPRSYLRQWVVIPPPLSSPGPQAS
Sequence of human zalpha11 Ligand-saporin immunotoxin conjugate (Q9HBE4 32-162): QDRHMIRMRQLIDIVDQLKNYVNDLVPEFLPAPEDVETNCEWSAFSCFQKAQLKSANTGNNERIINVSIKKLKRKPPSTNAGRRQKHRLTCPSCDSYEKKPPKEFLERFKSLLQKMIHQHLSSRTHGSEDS

## human zalpha11 Ligand-saporin immunotoxin conjugate
[1]
  growth inhibition of IM-9 cells at the maximal conjugate concentration (250 ng/ml), Alamar Blue: 79%
  growth inhibition of RAMOS cells at the maximal conjugate concentration (250 ng/ml), Alamar Blue: 65%

## purified CHO recombinant human zalpha11 Ligand (huzalpha11L-CHO) (from UniProt Q9HBE4 32-162)
[2]
  fold decrease in binding of 125I-labeled ligand at 250 fold molar excess: 3.7 fold
[3]
  fold decrease in binding of 125I-labeled ligand at 250 fold molar excess: 3.06 fold
[4]
  fold decrease in binding of 125I-labeled ligand at 250 fold molar excess: 3 fold
[5]
  fold decrease in binding of 125I-labeled ligand at 250 fold molar excess: 2 fold
